Assays:
[1] = molecular target: mouse anti-human BChE monoclonal antibody B2 18-5 (mouse); test: capture on immobilised antibody, activity assay of the unbound supernatant; hupresin-purified BChE (C4 and C5) in 0.02 M procaine, 0.02 M TrisCl pH 7.5 rotated with 0.04 mL B2 18-5 Sepharose beads at room temperature for 4 h
[2] = molecular target: the molecule itself; test: native gel or EMSA; pure human BChE from Cohn Fraction IV-4 on a 4-30% nondenaturing polyacrylamide gradient gel, 4 °C, stained for BChE activity

mouse anti-human BChE monoclonal antibody B2 18-5 (mouse), sequence (heavy, as listed by the source, chain 1 of 2): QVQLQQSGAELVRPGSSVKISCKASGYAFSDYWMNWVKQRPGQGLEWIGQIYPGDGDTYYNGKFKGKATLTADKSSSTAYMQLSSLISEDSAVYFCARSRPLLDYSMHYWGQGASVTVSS
mouse anti-human BChE monoclonal antibody B2 18-5 (mouse), sequence (light, as listed by the source, chain 2 of 2): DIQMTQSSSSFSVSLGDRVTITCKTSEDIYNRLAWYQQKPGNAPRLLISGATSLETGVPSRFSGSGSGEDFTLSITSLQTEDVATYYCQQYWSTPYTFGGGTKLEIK

| Molecule | percent bound [1] | binding result [2] |
| --- | --- | --- |
| human butyrylcholinesterase (BChE) (from UniProt P06276 29-602) (enzyme) | 97% |  |
| human butyrylcholinesterase (BChE) (enzyme, human (endogenous in plasma), UniProt P06276 29-602, looked up, 9 N-linked glycans, each subunit has 574 amino acids; forty residues at the C-terminus are the tetramerization domain; also called C4; BChE tetramer; source: also purified from Cohn Fraction IV-4 (Q-ceramic ion exchange, hupresin)) EDDIIIATKNGKVRGMNLTVFGGTVTAFLGIPYAQPPLGRLRFKKPQSLTKWSDIWNATKYANSCCQNIDQSFPGFHGSEMWNPNTDLSEDCLYLNVWIPAPKPKNATVLIWIYGGGFQTGTSSLHVYDGKFLARVERVIVVSMNYRVGALGFLALPGNPEAPGNMGLFDQQLALQWVQKNIAAFGGNPKSVTLFGESAGAASVSLHLLSPGSHSLFTRAILQSGSFNAPWAVTSLYEARNRTLNLAKLTGCSRENETEIIKCLRNKDPQEILLNEAFVVPYGTPLSVNFGPTVDGDFLTDMPDILLELGQFKKTQILVGVNKDEGTAFLVYGAPGFSKDNNSIITRKEFQEGLKIFFPGVSEFGKESILFHYTDWVDDQRPENYREALGDVVGDYNFICPALEFTKKFSEWGNNAFFYYFEHRSSKLPWPEWMGVMHGYEIEFVFGLPLERRDNYTKAEEILSRSIVKRWANFAKYGNPNETQNNSTSWPVFKSTEQKYLTLNTESTRIMTKLRAQQCRFWTSFFPKVLEMTGNIDEAEWEWKAGFHRWNNYMMDWKNQFNDYTSKKESCVGL |  | binds |

From PMC6152381, “The C5 Variant of the Butyrylcholinesterase Tetramer Includes a Noncovalently Bound 60 kDa Lamellipodin Fragment” (Molecules : A Journal of Synthetic Chemistry and Natural …, 2017)
